Tests used:
FcγRIIb [1] = target: T1, FcγRIIb (human, UniProt P31994 43-217); test: SPR (Biacore); parent = IL6R-B3/IL6R-L
T1 construct: extracellular domain; also called FcgRIIb; CD32B
T1 sequence (looked up): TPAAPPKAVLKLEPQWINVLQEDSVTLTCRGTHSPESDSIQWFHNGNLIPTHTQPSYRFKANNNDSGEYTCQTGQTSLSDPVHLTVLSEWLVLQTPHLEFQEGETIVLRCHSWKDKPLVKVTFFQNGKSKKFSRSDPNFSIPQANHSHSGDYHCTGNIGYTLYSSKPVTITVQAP

FcγRIIa type R [2] = target: T2, FcγRIIa type R (human, UniProt P12318 34-217); test: SPR (Biacore); parent = IL6R-B3/IL6R-L
T2 chain: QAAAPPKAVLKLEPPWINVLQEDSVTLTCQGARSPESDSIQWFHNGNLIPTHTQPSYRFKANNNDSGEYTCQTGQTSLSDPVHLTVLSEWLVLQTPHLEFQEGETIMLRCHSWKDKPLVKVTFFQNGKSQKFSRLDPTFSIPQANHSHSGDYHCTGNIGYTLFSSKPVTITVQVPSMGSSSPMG

FcγRIa = target: T3, FcγRIa (human, UniProt P12314 16-292); test: SPR (Biacore), captured antibody, soluble FcγR
T3 construct: Whole entry named; also called FcgRIa; CD64A
T3 sequence (P12314 16-292): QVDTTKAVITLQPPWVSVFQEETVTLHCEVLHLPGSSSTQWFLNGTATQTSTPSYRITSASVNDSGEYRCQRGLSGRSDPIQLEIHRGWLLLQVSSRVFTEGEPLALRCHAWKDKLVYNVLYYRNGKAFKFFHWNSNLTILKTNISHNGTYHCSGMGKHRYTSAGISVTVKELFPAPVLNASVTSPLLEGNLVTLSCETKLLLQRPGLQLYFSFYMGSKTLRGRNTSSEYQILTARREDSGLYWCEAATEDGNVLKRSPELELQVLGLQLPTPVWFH

FcγRIIa type H = target: T4, FcγRIIa type H (human, UniProt P12318 34-217); test: SPR (Biacore), captured antibody, soluble FcγR
T4 construct: extracellular domain; also called FcγRIIaH; FcgRIIaH
T4 sequence (looked up): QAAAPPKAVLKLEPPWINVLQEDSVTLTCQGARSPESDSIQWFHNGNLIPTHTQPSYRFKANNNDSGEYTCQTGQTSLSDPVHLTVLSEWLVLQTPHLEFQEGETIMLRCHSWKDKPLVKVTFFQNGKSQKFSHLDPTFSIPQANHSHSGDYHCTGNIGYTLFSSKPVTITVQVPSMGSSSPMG

FcγRIIb [3] = target: T1, FcγRIIb; test: SPR (Biacore), captured antibody, soluble FcγR
FcγRIIa type R [4] = target: T2, FcγRIIa type R; test: SPR (Biacore), captured antibody, soluble FcγR

Binder | KD(IIb) of the parent polypeptide/KD(IIb) of the altered polypeptide (FcγRIIb [1]) [fold] | KD(IIaR) of the parent polypeptide/KD(IIaR) of the altered polypeptide (FcγRIIa type R [2]) [fold] | Kd (FcγRIa) [nM] | Kd (FcγRIIa type H) [nM] | Kd (FcγRIIb [3]) [nM] | Kd (FcγRIIa type R [4]) [nM]
IL6R-BP499/IL6R-L (antibody, human IgG1, kappa, Alterations in EU numbering, introduced into IL6R-B3) heavy: QVQLQESGPGLVKPSETLSLTCAVSGHSISHDHAWSWVRQPPGEGLEWIGFISYSGITNYNPSLQGRVTISRDNSKNTLYLQMNSLRAEDTAVYYCARSLARTTAMDYWGEGTLVTVSSASTKGPSVFPLAPSSKSTSGGTAALGCLVKDYFPEPVTVSWNSGALTSGVHTFPAVLQSSGLYSLSSVVTVPSSSLGTQTYICNVNHKPSNTKVDKKVEPKSCDKTHTCPPCPAPDLLGDDSVFLFPPKPKDTLMISRTPEVTCVVIDVAEEDGEVKFNWYVDGVEVHNAKTKPREEQDNSTYRVVSVLTVLHQDWLNGKEYKCKVSNKALPRPIEKTISKAKGQPREPQVYTLPPSRDELTKNQVSLTCLVKGFYPSDIAVEWESNGQPENNYKTTPLVLDSDGSFFLYSKLTVDKSRWQQGNVFSCSVMHEALHNHYTQESLSLSP light: not shown | 2120 | 22.3 | 1.2 | 1000 | 1.5 | 49
IL6R-BP503/IL6R-L (antibody, human IgG1, kappa, Alterations in EU numbering, introduced into IL6R-B3) heavy: QVQLQESGPGLVKPSETLSLTCAVSGHSISHDHAWSWVRQPPGEGLEWIGFISYSGITNYNPSLQGRVTISRDNSKNTLYLQMNSLRAEDTAVYYCARSLARTTAMDYWGEGTLVTVSSASTKGPSVFPLAPSSKSTSGGTAALGCLVKDYFPEPVTVSWNSGALTSGVHTFPAVLQSSGLYSLSSVVTVPSSSLGTQTYICNVNHKPSNTKVDKKVEPKSCDKTHTCPPCPAPDLLGDDSVFLFPPKPKDTLMISRTPEVTCVVIDVAEEDGEVKFNWYVDGVEVHNAKTKPREEQDNSTYRVVSVLTVLHQDWLNGKEYKCKVSNKGLPRPIEKTISKAKGQPREPQVYTLPPSRDELTKNQVSLTCLVKGFYPSDIAVEWESNGQPENNYKTTPMVLDSDGSFFLYSKLTVDKSRWQQGNVFSCSVMHEALHNHYTQESLSLSP light: not shown | 1810 | 19.4 | 1.2 | 860 | 1.7 | 57
IL6R-BP510/IL6R-L (antibody, human IgG1, kappa, Alterations in EU numbering, introduced into IL6R-B3) heavy: QVQLQESGPGLVKPSETLSLTCAVSGHSISHDHAWSWVRQPPGEGLEWIGFISYSGITNYNPSLQGRVTISRDNSKNTLYLQMNSLRAEDTAVYYCARSLARTTAMDYWGEGTLVTVSSASTKGPSVFPLAPSSKSTSGGTAALGCLVKDYFPEPVTVSWNSGALTSGVHTFPAVLQSSGLYSLSSVVTVPSSSLGTQTYICNVNHKPSNTKVDKKVEPKSCDKTHTCPPCPAPELLGDDSVFLFPPKPKDTLMISRTPEVTCVVIDVAEEDGPVKFNWYVDGVEVHNAKTKPREEQYNSTYRVVSVLTVLHQDWLNGKEYKCKVSNKALPRPIEKTISKAKGQPREPQVYTLPPSRDELTKNQVSLTCLVKGFYPSDIAVEWESNGQPENNYKTTPPVLDSDGSFFLYSKLTVDKSRWQQGNVFSCSVMHEALHNHYTQESLSLSP light: not shown | 807 | 6.6 | 6 | 4000 | 3.8 | 170
IL6R-BP533/IL6R-L (antibody, human IgG1, kappa, Alterations in EU numbering, introduced into IL6R-B3) heavy: QVQLQESGPGLVKPSETLSLTCAVSGHSISHDHAWSWVRQPPGEGLEWIGFISYSGITNYNPSLQGRVTISRDNSKNTLYLQMNSLRAEDTAVYYCARSLARTTAMDYWGEGTLVTVSSASTKGPSVFPLAPSSKSTSGGTAALGCLVKDYFPEPVTVSWNSGALTSGVHTFPAVLQSSGLYSLSSVVTVPSSSLGTQTYICNVNHKPSNTKVDKKVEPKSCDKTHTCPPCPAPDLLGDDSVFLFPPKPKDTLMISRTPEVTCVVIDVGEEDGEVKFNWYVDGVEVHNAKTKPREEQDNSTYRVVSVLTVLHQDWLNGKEYKCKVSNKALPRPIEKTISKAKGQPREPQVYTLPPSRDELTKNQVSLTCLVKGFYPSDIAVEWESNGQPENNYKTTPLVLDSDGSFFLYSKLTVDKSRWQQGNVFSCSVMHEALHNHYTQESLSLSP light: not shown | 756 | 9.2 | 7.7 | 2600 | 4.1 | 120
IL6R-BP502/IL6R-L (antibody, human IgG1, kappa, Alterations in EU numbering, introduced into IL6R-B3) heavy: QVQLQESGPGLVKPSETLSLTCAVSGHSISHDHAWSWVRQPPGEGLEWIGFISYSGITNYNPSLQGRVTISRDNSKNTLYLQMNSLRAEDTAVYYCARSLARTTAMDYWGEGTLVTVSSASTKGPSVFPLAPSSKSTSGGTAALGCLVKDYFPEPVTVSWNSGALTSGVHTFPAVLQSSGLYSLSSVVTVPSSSLGTQTYICNVNHKPSNTKVDKKVEPKSCDKTHTCPPCPAPDLLGDDSVFLFPPKPKDTLMISRTPEVTCVVIDVAEEDGEVKFNWYVDGVEVHNAKTKPREEQDNSTYRVVSVLTVLHQDWLNGKEYKCKVSNKGLPRPIEKTISKAKGQPREPQVYTLPPSRDELTKNQVSLTCLVKGFYPSDIAVEWESNGQPENNYKTTPPVLDSDGSFFLYSKLTVDKSRWQQGNVFSCSVMHEALHNHYTQESLSLSP light: not shown | 840 | 10.1 | 2.1 | 1300 | 3.7 | 110
IL6R-BP539/IL6R-L (antibody, human IgG1, kappa, Alterations in EU numbering, introduced into IL6R-B3) heavy: QVQLQESGPGLVKPSETLSLTCAVSGHSISHDHAWSWVRQPPGEGLEWIGFISYSGITNYNPSLQGRVTISRDNSKNTLYLQMNSLRAEDTAVYYCARSLARTTAMDYWGEGTLVTVSSASTKGPSVFPLAPSSKSTSGGTAALGCLVKDYFPEPVTVSWNSGALTSGVHTFPAVLQSSGLYSLSSVVTVPSSSLGTQTYICNVNHKPSNTKVDKKVEPKSCDKTHTCPPCPAPELLGDDSVFLFPPKPKDTLMISRTPEVTCVVIDVGEEDGPVKFNWYVDGVEVHNAKTKPREEQDNSTYRVVSVLTVLHQDWLNGKEYKCKVSNKALPRPIEKTISKAKGQPREPQVYTLPPSRDELTKNQVSLTCLVKGFYPSDIAVEWESNGQPENNYKTTPPVLDSDGSFFLYSKLTVDKSRWQQGNVFSCSVMHEALHNHYTQESLSLSP light: not shown | 369 | 3.4 | 64 | 5600 | 8.4 | 330
IL6R-BP538/IL6R-L (antibody, human IgG1, kappa, Alterations in EU numbering, introduced into IL6R-B3) heavy: QVQLQESGPGLVKPSETLSLTCAVSGHSISHDHAWSWVRQPPGEGLEWIGFISYSGITNYNPSLQGRVTISRDNSKNTLYLQMNSLRAEDTAVYYCARSLARTTAMDYWGEGTLVTVSSASTKGPSVFPLAPSSKSTSGGTAALGCLVKDYFPEPVTVSWNSGALTSGVHTFPAVLQSSGLYSLSSVVTVPSSSLGTQTYICNVNHKPSNTKVDKKVEPKSCDKTHTCPPCPAPELLGDDSVFLFPPKPKDTLMISRTPEVTCVVIDVSEEDGEVKFNWYVDGVEVHNAKTKPREEQYNSTYRVVSVLTVLHQDWLNGKEYKCKVSNKALPRPIEKTISKAKGQPREPQVYTLPPSRDELTKNQVSLTCLVKGFYPSDIAVEWESNGQPENNYKTTPPVLDSDGSFFLYSKLTVDKSRWQQGNVFSCSVMHEALHNHYTQESLSLSP light: not shown | 587 | 5.4 | 55 | 3000 | 5.3 | 200
IL6R-BP511/IL6R-L (antibody, human IgG1, kappa, Alterations in EU numbering, introduced into IL6R-B3) heavy: QVQLQESGPGLVKPSETLSLTCAVSGHSISHDHAWSWVRQPPGEGLEWIGFISYSGITNYNPSLQGRVTISRDNSKNTLYLQMNSLRAEDTAVYYCARSLARTTAMDYWGEGTLVTVSSASTKGPSVFPLAPSSKSTSGGTAALGCLVKDYFPEPVTVSWNSGALTSGVHTFPAVLQSSGLYSLSSVVTVPSSSLGTQTYICNVNHKPSNTKVDKKVEPKSCDKTHTCPPCPAPELLGDDSVFLFPPKPKDTLMISRTPEVTCVVIDVAEEDGPVKFNWYVDGVEVHNAKTKPREEQDNSTYRVVSVLTVLHQDWLNGKEYKCKVSNKALPRPIEKTISKAKGQPREPQVYTLPPSRDELTKNQVSLTCLVKGFYPSDIAVEWESNGQPENNYKTTPPVLDSDGSFFLYSKLTVDKSRWQQGNVFSCSVMHEALHNHYTQESLSLSP light: not shown | 891 | 6.3 | 6 | 4300 | 3.5 | 180
IL6R-BP536/IL6R-L (antibody, human IgG1, kappa, Alterations in EU numbering, introduced into IL6R-B3) heavy: QVQLQESGPGLVKPSETLSLTCAVSGHSISHDHAWSWVRQPPGEGLEWIGFISYSGITNYNPSLQGRVTISRDNSKNTLYLQMNSLRAEDTAVYYCARSLARTTAMDYWGEGTLVTVSSASTKGPSVFPLAPSSKSTSGGTAALGCLVKDYFPEPVTVSWNSGALTSGVHTFPAVLQSSGLYSLSSVVTVPSSSLGTQTYICNVNHKPSNTKVDKKVEPKSCDKTHTCPPCPAPDLLGDDSVFLFPPKPKDTLMISRTPEVTCVVIDVSEEDGEVKFNWYVDGVEVHNAKTKPREEQDNSTYRVVSVLTVLHQDWLNGKEYKCKVSNKGLPRPIEKTISKAKGQPREPQVYTLPPSRDELTKNQVSLTCLVKGFYPSDIAVEWESNGQPENNYKTTPMVLDSDGSFFLYSKLTVDKSRWQQGNVFSCSVMHEALHNHYTQESLSLSP light: not shown | 1040 | 13.9 | 8.9 | 1300 | 3 | 79
